{
  "source": "patent US9198909B1",
  "about": "“Materials and methods for inhibiting mamalian S-nitrosoglutathione reductase” (Indiana University Research and Technology Corporation, priority 2007, dated 2015)",
  "proteins": {"B1": {"name": "GSNOR (Homo sapiens) (protein)", "chain": "MANEVIKCKAAVAWEAGKPLSIEEIEVAPPKAHEVRIKIIATAVCHTDAYTLSGADPEGCFPVILGHEGAGIVESVGEGVTKLKAGDTVIPLYIPQCGECKFCLNPKTNLCQKIRVTQGKGLMPDGTSRFTCKGKTILHYMGTSTFSEYTVVADISVAKIDPLAPLDKVCLLGCGISTGYGAAVNTAKLEPGSVCAVFGLGGVGLAVIMGCKVAGASRIIGVDINKDKFARAKEFGATECINPQDFSKPIQEVLIEMTDGGVDYSFECIGNVKVMRAALEACHKGWGVSVVVGVAASGEEIATRPFQLVTGRTWKGTAFGGWKSVESVPKLVSEYMSKKIKVDEFVTHNLSFDEINKAFELMHSGKSIRTVVKI"}},
  "substrate": "CCCCCCCCO",
  "experiment": "GSNOR substrate kinetics with octanol",
  "format": "biochemical, human",
  "conditions": "other: octanol as GSNOR substrate; pH 10.0",
  "description": "GSNOR is an alcohol dehydrogenases and like other members of ADH family, is capable of oxidizing and reducing primary alcohols and aldehydes with the help of a molecule of NAD(H). Octanol was chosen as the substrate in the initial screening assay as it is bulky like GSNO, but has 200-fold higher KM value (1 mM) and a kcat value (200 min-1) that is more than 2 order of magnitude lower than that of GSNO. This allows the initial velocity conditions to prevail for a period up to 10 min (data not shown) and it enables conducting a large number of concurrent assays in a384 well plate format. The pH of the assay was adjusted to pH 10 in order to get significant rate of oxidation of octanol in the absence of compounds. The screening for GSNOR inhibitors was performed in the presence of saturating concentration of NAD^+ and an un-saturating concentration of octanol thereby increase the probability of identifying compounds that bind, only or primarily in the GSNO binding site of GSNOR. This was deemed desirable as there are many dehydrogenases inside the cells and compounds binding in the coenzyme binding site are more likely to be nonspecific inhibitors of GSNOR, than compounds that bind primarily to the form of GSNOR that binds GSNO.",
  "data": [
    {"protein": "B1", "values": [
      {"measurement": "Km", "result": 1000, "unit": "µM"},
      {"measurement": "kcat", "result": 3.33, "unit": "s⁻¹"}
    ]}
  ]
}
